Laboratory results: the DeepSol protein solubility set

Test: soluble on expression in E. coli; label from the status in PepcDB or PDB records

Row | Sequence | soluble on expression in E. coli
1 | MGSDKIHHHHHHMKGIEVKQVTKSFDKKMILNGIGMTIEPNKIYGLLGRNGAGKSTLLSLLVNRIAPDTGEIRLDNKVIRDNDEQLSKMFLMSEVDLYPKNLKVKDVFKWTKSFYGGFDEELAQDLCEKFGLQTNIIFNKLSTGYRTIMKLIVALAVPVEYVFLDEPILGLDAGHREIFYNALVETYAENPRTFVISTHLIEEIANLIEHVLVIDHGRLIVDDETEKVLGEAYVVSGPEDKVDEYTQGLNVIGSDKLARIKASYVFGSLDNKPISDLINIDQMDLQTLFVNLTNGGNENE | not soluble
2 | MKKIKTISTLVAGLGIAFLGHTTHADAAENNNQQQSTHNYSTTEVSFSNSGNLYTSGQCTWYVYDKTGGKIGSTWGNANSWATAAQAAGFTVNNTPEEGAIMQSSEGAFGHVAFVESVNNDGSITVSEMNYDGGPFAISTRTISASEASSYNYIHLNLEHHHHHH | not soluble
3 | MAHHHHHHSLIKTEFKGNNIPYEYAAGADVSDSINGNPIKSFPFEVIELPEGTKYLAWSLIDYDAIPVCGFAWIHWSVANVSVSGNSISIKADLSRTKGDYVQGKNSFTSGLLAEDFSEIENHYVGPTPPDQDHQYELTVYALDHSLNLKNGFYLNEFLKEVNQHKIDQTSINLIGRKEG | not soluble
4 | MTVDSSMSSGYCSLDEELEDCFFTAKTTFFRNAQSKHLSKNVCKPVEETQRPPTLQEIKQKIDSYNTREKNCLGMKLSEDGTYTGFIKVHLKLRRPVTVPAGIRPQSIYDAIKEVNLAATTDKRTSFYLPLDAIKQLHISSTTTVSEVIQGLLKKFMVVDNPQKFALFKRIHKDGQVLFQKLSIADRPLYLRLLAGPDTEVLSFVLKENETGEVEWDAFSIPELQNFLTILEKEEQDKIQQVQKKYDKFRQKLEEALRESQGKPG | not soluble
5 | MDCMRKLDRVDMQLVKILSENSRLTYRELADILNTTRQRIARRIDKLKKLGIIRKFTIIPDIDKLGYMYAIVLIKSKVPSDADKVISEISDIEYVKSVEKGVGRYNIIVRLLLPKDIKDAENLISEFLQRIKNAENVEVILISEVRKFEII | soluble
6 | MGSDKIHHHHHHMLSVTRYSIKNVRLKPWVKFIWYFETKSNILLNNKLLPTDSIDIILNLSDVMEYKIENQDYTASNMHFNGIRDKHGFIIQHGNIRVIGISFYPFGLYPFLKIPISEFNRQIVDLEAVSQLFAKKLEESLNPIQSVEKIVLYLEEVLLSILEEDLISNKYVKLLNSFIYVNRYSNIKAFCDDTNINIKTLERICLKYTGYTPKILKRIYRFKMASNQLIYNYKDDELFDFIYENEYYDQAHFIKEFKKFSGTSPIKFSGENKTIKENIKYSYL | not soluble
7 | MSLQNMETRYTHSPADIRHYSTEQLRDEFLVEKVFIPGAISLTYTHNDRMIFGGVTPTTEELEIILDKELGVDYFLERRELGVINIGGPGFIEIDGAKETMKKQDGYYIGKETKHVRFSSENPDNPAKFYISCVPAHHKYPNVKISIDEITPMETGDPLTLNQRKIYQYIHPNVCESCQLQMGYTILEPGSAWNTMPCHTHERRMEAYVYFDMEEDTRIFHMMGKPDETKHLVMSNEQAAISPSWSIHSGVGTSNYSFIWAMCGENITYTDMDMVAMDQLKEGHHHHHH | soluble
8 | MGSDKIHHHHHHMEEEMLKCKRLFVSDMDGTFYLGNTLLPGSLDFAMAVHRLGARLVFLTNNSSRTPEEYIRKLEKMGVDRKLFQVYTSGEATISFLKRDFAKKKAFLLSTPSVREMFEKGGVMLDDFDPEVLVLAFDTSITYEKIRRAALLIRQGIPYVASHPDINCPTEEGPIPDVGSLISLFETSTGRRPDHIIGKPDPAILKMVMEDFDCSQEETVVIGDRLYTDIECGLKAEVDTFLVLSGETTRDMIPDRHSYKVVENVGSLAKKIRDHDTV | not soluble
9 | MRIDTVNVLLEALPYIKEFYGKTFVIKFGGSAMKQENAKKAFIQDIILLKYTGIKPIIVHGGGPAISQMMKDLGIEPVFKNGHRVTDEKTMEIVEMVLVGKINKEIVMNLNLHGGRAVGICGKDSKLIVAEKETKHGDIGYVGKVKKVNPEILHALIENDYIPVIAPVGIGEDGHSYNINADTAAAEIAKSLMAEKLILLTDVDGVLKDGKLISTLTPDEAEELIRDGTVTGGMIPKVECAVSAVRGGVGAVHIINGGLEHAILLEIFSRKGIGTMIKELEG | soluble
10 | VIADDFTGATDIASFLVENGMPTVQINDVPTGTQPEGCDAVVISLKTRSCPAQEAIKQSLAALVWLKKQGCQQVYFKYCSTFDSTAEGNIGPVTDALMVALDTSFTVISPALPVNGRTVYQGYLFVMNHLLAESGMRHHPINPMTDSYLPRLMEAQAQGRCGVIPAQTLDEGVAATRAALSRLQQEGYRYAVLDALNERHLEIQGEVLRDAPLVTGGSGLAMGLARQWAKHGVSQARSAGYPLSGRAVVLSGSCSQMTNQQVAFYRQHAPTRDVDVARCLSSETREAYAEALAQWVLSQDSELAPMISATASTQALAAIQQQYGATEASHAVEALFSLLAARLAEGGITRFIVAGGETSGVVTQSLGITGFHIGPCISPGVPWVNALHAPVSLALKSGNFGDES | not soluble
11 | MYIPPYKADDQDIVVELNSRFGAETFTVQPTRTGMPVLWVPRERLIEVLTFLRQVPKPYVMLYDLHGVDERLRTHRRGLPSADFSVFYHLMSLERNSDVMIKVALSERDLNLPTATRIWPNANWYEREVWDMYGITFTGHPHLTRMLMPPTWQGHPLRKDYPARATEFDPYSLSAAKQDLEQEALRFKPEDWGMKRHGENEDYMFLNLGPNHPSAHGAFRIILQLDGEEIIDCVPEIGYHHRGAEKMAERQSWHSFIPYTDRIDYLGGVMNNLPYVLSVEKLAGIKVPQRVDVIRIMMAEFFRILNHLLYLGTYIQDVGAMTPVFFTFTDRQRAYKVVEAITGFRLHPAWYRIGGVAHDLPRGWDKLVREFLDWMPKRLDEYETAALKNSILRGRTIGVAQYNTKEALEWGTTGAGLRATGCDFDLRKARPYSGYENFEFEVPLAHNGDAYDRCMVKMGEMRQSLRIIEQCLKNMPEGPYKADHPLTTPPPKERTLQHIETLITHFLQVSWGPVMPANEAFQMIEATKGINSYYLTSDGSTMSYRTRIRTPSFAHLQQIPSVINGSM | not soluble
12 | MAENYQQAAKDIIQLIGMDNIISVTHCQTRLRFILKDHEQVDGKQLEKIDLVKGVFYNGGQYQVILGTGIVTKVYDEIEKLGINVVSKAEQTAI | not soluble
13 | MLTACNGSRKGDANLSDNPLLQSSALFMEAPEFDKIKTEHFLPAFEAGMEQQLAEIDSIVNNSEAPTFENTLVAMERSGQTLKRVSNVFFGLTGANTNDELQKIEEKVSPLLAAHSDAIYLNDKLFQRVKAVYESDQSAIEPEGQKLIQEYYDAFVRAGANLSAEDKAKLMELNKEEASLTTEFGNKLIAATNAAAVIVGSKDSLDGLSETEIAKAASDAKAAGHEGKYLLNITNTTQQDYLSVLNDRTIRQRVLEASIHRTDKGDANDTQSIVLRLARLRAQKARLLGFPNYAAWKLQNQMANNPETVLAFVKSIATPYAPQAQKDAAELQAYARSKGFEGDLTAADWNYYADKLRKEKFGLDENEVKQYFVTDSVLKNGVFYAANKLYGLTFKERTDLPVYAEDVRVFDVIDQDGKQLALFYTDLYRRPTKSGGAWMSNWVDQSYLLNQKPVIYNVCNYAKGVDGQPSLINYDEVTTLFHEFGHALHGMFAAQQYPLLSGTNVARDFVEMPSQLNEHWAMDPEVFANYAKHWKTQEPMPAELVKKIQDASDFNQAYSMGENLAAVSLDQAWHTLTVEEAEAITDVAKFEEEALRKVGLYNPQIPPRYRSSYFRHIWSNGYASGYYAYLWTEVLDHNVYQWMVQNGGMTPQNGQRLRDMILSRGNTQDFNVIFTAFTGLQKPDIRDLLRARGLM | soluble
14 | MAHHHHHHMGYMQEREEMSAMVDQRTAQLEALTSSVAEAQKKLQALDERMMALEPHGNVQATAPAGATATTSKRARAGASSVGGAWDAAGVASATKMPPEELKKKVEESIEHIFHLLRTGDQQLKLTAQNPNLRKSVDGAKVAGNASHGRSRAASLHRGPKALQSSTMQTGKMKAATGGSSYDSQRPSSGAHRSGKSTVGATTAAGAADAASQQQHHDASMGPVEMLTIIENKLEEYHRYLSDPANHVELALMKAVMKQSDKQRRRQARIIHLANQEDEQEERIRRALERSQAPIIHKIGKPFRPRSFVSKPIDEKSRRKAERAAAALNGSLDNIDSDEDGAEFFM | soluble
15 | GSHMAASATAAAVAAEVISVHSLEQWTMQIEEANTAKKLVVIDFTASWCGPSRIMAPVFADLAKKFPNAVFLKVDVDELKPIAEQFSVEAMPTFLFMKEGDVKDRVVGAIKEELTAKVGLHAAAQ | soluble
16 | MLRHKEPGSGSGGGVYWVDSQQKRYVPVKGDHVIGIVTAKSGDIFKVDVGGSEPASLSYLSFEGATKRNRPNVQAISSRLLEHHHHHH | not soluble
17 | MRKFLSKTHHHTNPLWRVYRLVKFSKVFKNVIIIEFSKFIPSMVLKRHIYKQLLNINIGNQSSIAYKVMLDIFYPELITIGSNSVIGYNVTILTHEALVDEFRYGPVTIGSNTLIGANATILPGITIGDNVKVAAGTVVSKDIPDNGFAYGNPMYIKMIRR | not soluble
18 | MGREALGKCPVCNNETTITRITCEKCNTTIEGRFDLCKFCRLTPEQKLFVDVFIKCRGNIKEVEKELGVSYPTVKNKLEDVANALGHKSEEAPVEETNRKEILDKLYEGEISVDEALELLKG | not soluble
19 | MNCVCGSGKTYDDCCGPLLARTRSAASPEALMRSRYAAYALKDFDYIVETTDPERRDLFDHDVNRAWMEESDFLELRVLGSSEKGSRGTVEFIARFRRGGGPEQSHHERSQFRKARGRWYFSEGEAVD | soluble
20 | MGHHHHHHSHMYFFSKHPEASIQAVFSDAQMHIWALEGLSHLVAASFTEDRFGVVQTTLPAILNTLLTLQEAVDKYFKLPHASSKPPRISGSLVDTSYKTLRFAFRASLKTAIYRITTTFGEHLNAVQASAEHQKRLQQFLEFKE | soluble
21 | MSLSKRILSPLQNNGILGEFYGVIIRAIEENCGRLGMNVELKMLENFSESNGADGYIFIGGDLSEKTLKEIKSRKKPFVLVDHYIPGERVDCVISDGYDGAVYATNYLISKGFKRIVHVHGPLHPYGFKMRYDGYKDAMEKAGLMPRFYECDDTEEGTRKVIDIMLNSYGTPEAIFTSNDSIAFWVIKRLKEHNIKVPDDVSVIGFDDIVDAENFDPPLTTLRVFKYEMGCLACKRLHELLTGINPHPVRILVFTQFVKRKSTKEGHHHHHH | soluble
22 | MGSDKIHHHHHHMSTRQLLRNHYVQVDRSKKPYCFLLAKEPEYNDILNNYRIPLGEYQFKRTLFAREWLYKDVWHEMVSFAFCREPLSRCISAFFYLWEAEAQRRAWLPSFNGALNAHGYGLDYSFDQFLDAVVACRDSGSNFSPMGLHFSTHTATMWDDVTDSGGSILLSNIFRLEDLIHGINHVFSVCGVPDKAKPLLRDINTNETKRPFTPSRHHIAKVEDLYGKDFELYETYGRLF | not soluble
23 | ETEQSVDLETVSVVGKSRPRATSGLLHTSTASDKIISGDTLRQKAVNLGDALDGVPGIHASQYGGGASAPVIRGQTGRRIKVLNHHGETGDMADFSPDHAIMVDTALSQQVEILR | not soluble
24 | DRTIPDYTSFNTVDEWLDAIKMSQYKESFASAGFTTFDIVSQMTVEDILRVGVTLAGHQKKILNSIQVMRAQMNQ | soluble
